Experimental data as given in patent US20200247894A1 (Regeneron, published 2020).
Blank lines part the entries; values can stand above or below the binder they belong to.

How the values were obtained:
[1] = target: T1, D1 domain of human IL-2Rγ extracellular domain expressed with a C-terminal myc-myc-hexahistidine tag (human); test: SPR, mAb captured on anti-hFc, 37 C
T1 construct: also called human IL2Rγ domain 1
T1 chain: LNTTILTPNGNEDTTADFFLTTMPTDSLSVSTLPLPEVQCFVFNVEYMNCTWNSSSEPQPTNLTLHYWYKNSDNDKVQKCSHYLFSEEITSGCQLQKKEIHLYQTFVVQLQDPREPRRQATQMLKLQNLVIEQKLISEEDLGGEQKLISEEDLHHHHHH
Procedure: (§1) Equilibrium dissociation constants (KD values) for IL-2Rγ binding to purified anti-IL2Rγ monoclonal antibodies were determined using a Biacore 4000 instrument equipped with a real-time surface plasmon resonance biosensor. All binding studies were performed in 10 mM HEPES, 150 mM NaCl, 3 mM EDTA, and 0.05% v/v Surfactant Tween-20, pH 7.4 (HBS-ET) running buffer at 25° C. and 37° C. The Biacore sensor surface was first derivatized by amine coupling with a monoclonal mouse anti-human Fc antibody (GE, # BR-1008-39) to capture anti-IL2Rγ monoclonal antibodies.
(§2) The dissociation of monoclonal antibody bound IL2Rγ reagents were monitored for 8-10 minutes in HBS-ET running buffer. Kinetic association (kₐ) and dissociation (kd) rate constants were determined by fitting the real-time sensorgrams to a 1:1 binding model using Scrubber 2.0c curve fitting software. Binding dissociation equilibrium constants (KD) and dissociative half-lives (t_{1/2}) were calculated from the kinetic rate constants as: […]

[2] = target: T2, D2 domain of human IL2Rγ extracellular domain expressed with a C-terminal myc-myc-hexahistidine tag (human); test: SPR, mAb captured on anti-hFc, 25 C
T2 construct: also called human IL2Rγ domain 2
T2 chain: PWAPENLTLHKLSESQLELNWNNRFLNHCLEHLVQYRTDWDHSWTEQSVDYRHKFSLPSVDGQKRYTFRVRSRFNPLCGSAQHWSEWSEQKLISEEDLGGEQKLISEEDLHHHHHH
Procedure: as §1

[3] = target: T2, D2 domain of human IL2Rγ extracellular …; test: SPR, mAb captured on anti-hFc, 37 C
Procedure: as §1

[4] = target: T1, D1 domain of human IL-2Rγ extracellular …; test: SPR, mAb captured on anti-hFc, 25 C
Procedure: as §1, §2

[5] = target: T3, human IL2Rγ (endogenously expressed on cells) (human, UniProt P31785 23-369); test: cell-based or functional assay
T3 sequence (looked up): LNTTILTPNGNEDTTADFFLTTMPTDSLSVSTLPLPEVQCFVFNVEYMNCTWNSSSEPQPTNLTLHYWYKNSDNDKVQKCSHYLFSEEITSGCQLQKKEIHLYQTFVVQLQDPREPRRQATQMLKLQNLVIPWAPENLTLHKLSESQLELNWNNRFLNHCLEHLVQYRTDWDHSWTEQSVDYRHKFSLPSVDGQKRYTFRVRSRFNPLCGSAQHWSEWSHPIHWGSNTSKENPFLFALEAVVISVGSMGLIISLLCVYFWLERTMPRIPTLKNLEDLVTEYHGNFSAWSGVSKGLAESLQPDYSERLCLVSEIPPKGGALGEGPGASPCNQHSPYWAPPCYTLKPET

[6] = target: T2, D2 domain of human IL2Rγ extracellular …; test: SPR, mAb captured on anti-hFc, 25 C; 25 C
Procedure: as §1

- 100 nM Ag Bound [1]: 39 RU
- Kd [1]: 8.69 nM
- koff [1]: 0.00221 s⁻¹
- kon [1]: 254000 M⁻¹ s⁻¹
- t½ [1]: 5 min
- 100 nM Ag Bound [2]: 0 RU
- 100 nM Ag Bound [3]: -1 RU
- 100 nM Ag Bound [4]: 55 RU
- Kd [4]: 4.74 nM
- koff [4]: 0.000538 s⁻¹
- kon [4]: 114000 M⁻¹ s⁻¹
- t½ [4]: 21 min
- IC50; IL-2 30 pM; NK92/hIL7R/STAT3-luc [5]: 4.3e-10 M
- IC50; IL-4 250 pM; Ramos.2G6.4C10/STAT3-luc [5]: 3.6e-10 M
- IC50; IL-7 50 pM; NK92/hIL7R/STAT3-luc [5]: 1.5e-09 M
- IC50; IL-9 20 pM; NK92/hIL7R/STAT3-luc [5]: 4.7e-10 M
- IC50; IL-21 5 pM; NK92/hIL7R/STAT3-luc [5]: > 1e-07 M
- Max Inhibition (%); IL-2 30 pM; NK92/hIL7R/STAT3-luc [5]: 48%
- Max Inhibition (%); IL-4 250 pM; Ramos.2G6.4C10/STAT3-luc [5]: 70%
- Max Inhibition (%); IL-7 50 pM; NK92/hIL7R/STAT3-luc [5]: 42%
- Max Inhibition (%); IL-9 20 pM; NK92/hIL7R/STAT3-luc [5]: 38%
- Max Inhibition (%); IL-15 60 pM; NK92/hIL7R/STAT3-luc [5]: 30%
- Max Inhibition (%); IL-21 5 pM; NK92/hIL7R/STAT3-luc [5]: 28%
B1: H4H12863P (antibody, human IgG4 S228P, kappa, V domains shown)
VH: QVQLVESGGGVVQPGRSLRLSCTASGFTFRSYDMYWVRQAPGKGLEWVSVITYDGNNKYYADSVKGRFTISRDNSKNTLFLQMSSLRPEDTAVYYCAKRGLIWVGESFDYWGQGTLVTVSS
VL: DIQMTQSPSTLSASVGDRVTITCRASQSINSWLAWYQQKPGKAPNLLIYKASSLESGVPSRFSGSGSGTEFTLTISSLQPDDFATYYCQQYKSYSWTFGQGTKVEIKR
notes: human IgG4

- Kd [6]: 214 nM
- koff [6]: 0.0435 s⁻¹
- kon [6]: 203000 M⁻¹ s⁻¹
- t½ [6]: 0.3 min
- 100 nM Ag Bound [1]: 1 RU
- binding result [1]: no binding (tested: 100 nM)
- 100 nM Ag Bound [4]: 0 RU
- IC50; IL-4 250 pM; Ramos.2G6.4C10/STAT3-luc [5]: > 1e-07 M
- IC50; IL-7 50 pM; NK92/hIL7R/STAT3-luc [5]: 4.1e-08 M
- IC50; IL-9 20 pM; NK92/hIL7R/STAT3-luc [5]: > 1e-07 M
- IC50; IL-15 60 pM; NK92/hIL7R/STAT3-luc [5]: > 1e-07 M
- Max Inhibition (%); IL-2 30 pM; NK92/hIL7R/STAT3-luc [5]: 26%
- Max Inhibition (%); IL-4 250 pM; Ramos.2G6.4C10/STAT3-luc [5]: 70%
- Max Inhibition (%); IL-7 50 pM; NK92/hIL7R/STAT3-luc [5]: 93%
- Max Inhibition (%); IL-9 20 pM; NK92/hIL7R/STAT3-luc [5]: 50%
- Max Inhibition (%); IL-15 60 pM; NK92/hIL7R/STAT3-luc [5]: 55%
B2: H4H12874P (antibody, human IgG4 S228P, kappa, V domains shown)
VH: QVQLVESGGGVVQPGRSLRLSCAASGFNFRNFGMHWVRQAPGKGLEWVAGILYDGSSKYYADSVKDRFTISRDNSKNTLFLQMNSLRAEDTAMYYCAKEEDTAMVPFDSWGPGTLVTVSS
VL: DIQLTQSPSFLSASVGDRVTITCWASQGISSYLAWYQQKPGKAPTLLIYAASTLQSGVPSRFSGSGSGTEFTLTISSLQPEDFASYYCQQLKSYPLTFGGGTKVEIKR
notes: human IgG4

- 100 nM Ag Bound [1]: 0 RU
- binding result [1]: no binding (tested: 100 nM)
- 100 nM Ag Bound [2]: -1 RU
- 100 nM Ag Bound [3]: -1 RU
- 100 nM Ag Bound [4]: 0 RU
- Max Inhibition (%); IL-2 30 pM; NK92/hIL7R/STAT3-luc [5]: 29%
B3: H4H12859P (antibody, human IgG4 S228P, kappa, V domains shown)
VH: QVQLVQSGAEVKKPGASVRVSCKASGYTFTDYDIHWVRQAPGHGLEWMGWINPNSGGTNYAQKFQGRVTMTRDTSISTVYMDLSRLRSDDTAVYYCARADYSSSYYYYGMDVWGQGTTVTVSS
VL: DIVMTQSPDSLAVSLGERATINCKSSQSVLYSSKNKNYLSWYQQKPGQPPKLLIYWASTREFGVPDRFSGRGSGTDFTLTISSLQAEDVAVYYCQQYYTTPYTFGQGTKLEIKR
notes: human IgG4

- 100 nM Ag Bound [1]: 33 RU
- Kd [1]: 21.2 nM
- koff [1]: 0.0036 s⁻¹
- kon [1]: 170000 M⁻¹ s⁻¹
- t½ [1]: 3.2 min
- 100 nM Ag Bound [2]: 0 RU
- 100 nM Ag Bound [3]: -1 RU
- 100 nM Ag Bound [4]: 47 RU
- Kd [4]: 11.8 nM
- koff [4]: 0.00111 s⁻¹
- kon [4]: 94000 M⁻¹ s⁻¹
- t½ [4]: 10 min
- IC50; IL-7 50 pM; NK92/hIL7R/STAT3-luc [5]: 8.2e-10 M
- Max Inhibition (%); IL-4 250 pM; Ramos.2G6.4C10/STAT3-luc [5]: 31%
- Max Inhibition (%); IL-7 50 pM; NK92/hIL7R/STAT3-luc [5]: 36%
B4: H4H12871P (antibody, human IgG4 S228P, kappa, V domains shown)
VH: QVQLQESGPGLVKPSQTLSLTCTVSGGSITSGGYYWSWIRQYPGQGLEWIGYIYYSGKTYYNPSFTSRITISVDTSKKQFSLKMSSVTAADTAVYYCARAGFTSSNGWFDPWGQGTLVTVSS
VL: DIQMTQSPSSLSASVGDRVTITCRASQNIRSYLNWYQQKPGKAPKLLIYSASSLQSGVPSRFSGSGSGTDFTLTISSLQPEDFPTYYCQQTYSSPWTFGPGTKVEIKR
notes: human IgG4; also called REGN9434
